Measurements as given in patent US20160030595A1 (THOMAS JEFFERSON UNIVERSITY, published 2016).

Biological target: T1, human guanylyl cyclase C (GCC) (human, UniProt P25092 24-430, limits assumed)
T1 construct: also called human GCC; STAR
Test: not described

T1 sequence (P25092 24-430 limits assumed): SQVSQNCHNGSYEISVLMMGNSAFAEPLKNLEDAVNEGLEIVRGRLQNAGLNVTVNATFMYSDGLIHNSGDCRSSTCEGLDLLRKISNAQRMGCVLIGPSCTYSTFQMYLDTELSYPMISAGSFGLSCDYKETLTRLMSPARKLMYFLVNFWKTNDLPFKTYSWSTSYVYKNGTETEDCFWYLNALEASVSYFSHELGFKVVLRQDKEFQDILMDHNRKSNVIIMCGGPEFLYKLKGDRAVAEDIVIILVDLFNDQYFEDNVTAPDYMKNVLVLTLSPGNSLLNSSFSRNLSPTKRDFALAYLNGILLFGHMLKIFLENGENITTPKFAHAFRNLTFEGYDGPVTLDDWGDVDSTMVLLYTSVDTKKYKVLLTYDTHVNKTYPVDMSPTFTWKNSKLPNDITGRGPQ

binding result	Binder
binds	MS7 mouse monoclonal antibody (IgG1k) (antibody, V domains shown) VH: EVMLVESGGGLVKPGGSLKLSCAASGFTFSTYAMSWVRQTPEKRLEWVATITSGGSYTYYPDSVKGRFTISRDNAKNILYLQMSSLRSEDTAMYYCTRLRQIGLRGFSDYWGQGTTLTVSS VL: DILMTQSPSSMYASLGERVTITCKASHDIKSYLSWYQQKPWRSPKTLIYYTTALADGVPSRFSGSGSGQDYSLTISSLESDDTATYYCLQHGESPYTFGGGTKLEIK
binds	MS20 mouse monoclonal antibody (IgG2ak) (antibody, V domains shown) VH: EVQLEESGPELVKPGASVKMSCKASGYTFTDYVISWVKQRTGQGLEWIGVTYPGSGNTYYGERFKGKATLTVDKMSNTAYMQLSSLTSEDSAVYFCTRNYGSFYALDYWGQGTSVTVSS VL: DILMTQSPATLSVTPGDRVSLSCRASQSIRDYLHWYQHRSHESPRLLIKYASQSISGIPSRFSGSGSGSDFTLTINSVEPEDVGVYYCQNGHSFPTFGGGTKLEIK
